T1: human kallikrein 13 (hK13) (human, UniProt Q9UKR3 26-277, limits assumed)
T1 sequence (looked up): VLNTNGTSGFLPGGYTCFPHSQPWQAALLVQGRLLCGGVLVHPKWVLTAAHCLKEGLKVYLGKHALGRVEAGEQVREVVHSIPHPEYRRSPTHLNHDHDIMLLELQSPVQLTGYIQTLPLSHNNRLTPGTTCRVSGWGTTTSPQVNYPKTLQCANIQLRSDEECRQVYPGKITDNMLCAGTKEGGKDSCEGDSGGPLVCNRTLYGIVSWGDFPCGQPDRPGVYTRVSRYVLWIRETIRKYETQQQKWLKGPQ

T2: human neutrophil elastase (HNE) (human, UniProt P08246 30-247, limits assumed)
T2 sequence (looked up): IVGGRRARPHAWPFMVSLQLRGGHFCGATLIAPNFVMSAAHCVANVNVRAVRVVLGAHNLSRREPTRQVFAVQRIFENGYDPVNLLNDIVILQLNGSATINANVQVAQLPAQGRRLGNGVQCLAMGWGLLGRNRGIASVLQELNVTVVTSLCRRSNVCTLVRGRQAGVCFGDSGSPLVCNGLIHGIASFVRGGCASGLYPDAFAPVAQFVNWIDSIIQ

T3: human kallikrein 5 (hK5) (human, UniProt Q9Y337 67-293, limits assumed)
T3 sequence (looked up): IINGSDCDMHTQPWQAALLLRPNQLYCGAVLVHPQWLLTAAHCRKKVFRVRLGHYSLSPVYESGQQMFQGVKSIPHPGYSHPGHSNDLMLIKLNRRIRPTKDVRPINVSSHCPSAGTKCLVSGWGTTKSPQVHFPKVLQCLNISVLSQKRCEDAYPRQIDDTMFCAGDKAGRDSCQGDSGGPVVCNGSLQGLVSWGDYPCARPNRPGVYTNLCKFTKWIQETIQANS

T4: human kallikrein 8 (hK8) (human, UniProt O60259 33-260)
T4 sequence (looked up): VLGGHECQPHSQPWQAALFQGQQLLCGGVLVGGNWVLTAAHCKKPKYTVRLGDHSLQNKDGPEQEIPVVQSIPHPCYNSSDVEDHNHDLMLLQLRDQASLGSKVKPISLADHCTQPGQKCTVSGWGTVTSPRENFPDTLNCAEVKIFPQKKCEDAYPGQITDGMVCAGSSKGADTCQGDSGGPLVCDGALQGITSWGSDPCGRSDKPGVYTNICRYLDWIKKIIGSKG

B1: human kallikrein 14 (hK14) (enzyme, UniProt Q9P0G3 25-251, looked up)
chain: IIGGHTCTRSSQPWQAALLAGPRRRFLCGGALLSGQWVITAAHCGRPILQVALGKHNLRRWEATQQVLRVVRQVTHPNYNSRTHDNDLMLLQLQQPARIGRAVRPIEVTQACASPGTSCRVSGWGTISSPIARYPASLQCVNINISPDEVCQKAYPRTITPGMVCAGVPQGGKDSCQGDSGGPLVCRGQLQGLVSWGMERCALPGYPGVYTNLCKYRSWIEETMRDK
notes: range counted on GenBank AAK48524 (printed), which may differ from the UniProt numbering; also called recombinant hK14
B2: ACTG9 (other)
chain: MRGSHHHHHHSRHPNSPLDEENLTQENQDRGTHVDLGLASANVDFAFSLYKQLVLKAPDKNVIFSPLSISTALAFLSLGAHNTTLTEILKGLKFNLTETSEAEIHQSFQHLLRTLNQSSDELQLSMGNAMFVKEQLSLLDRFTEDAKRLYGSEAFATDFQDSAAAKKLINDYVKNGTRGKITDLIKDLDSQTMMVLVNYIFFKAKWEMPFDPQDTHQSRFYLSKKKWVMVPMMSLHHLTIPYFRDEELSCTVVELKYTGNASALFILPDQDKMEEVEAMLLPETLKRWRDSLEFREIGELYLPKFSISRDYNLNDILLQLGIEEAFTSKADLSGITGARNLAVSQVVHKAVLDVFEEGTEASAATAVKTVDYAALVETRTIVRFNRPFLMIIVPTDTQNIFFMSKVTNPKQA
notes: also called rACTG9

Columns and labels:
AATG9 [1] = molecular target: T5, AATG9 (human, UniProt P01009 25-418); assay: progress curve, pseudo-first order, 37 C
T5 construct: mature; also called rAATG9
Method: (§1) The association rate constants for interactions of hK14, with different inhibitors were determined under pseudo-first order conditions using the progress curve method (Morrison and Walsh, 1988). Under these conditions, a fixed amount of enzyme (2 nM) was mixed with different concentrations of inhibitor (0-80 nM) and an excess of substrate (20 μM). Reactions were performed in reaction buffer (50 mM Tris pH 7.5, 150 mM NaCl, 0.05% Triton X-100, 0.01% BSA) at 37° C. for 45 min and the rate of product formation was measured using a FLₓ800 fluorescence 96-well microplate reader (Biotek, USA) Inhibition is considered to be irreversible over the course of reaction and the progression of enzyme activity is expressed as product formation (P), beginning at a rate (vz) and is inhibited over time (t) at a first-order rate (kobs), where the rate constant is only dependent on the inhibitor concentration.
(§2) Kinetic analysis of the inhibition of human hK14 by recombinant serpins were performed under pseudo-first-order conditions using an excess of inhibitor at various molar ratios of hK14. The time-dependent inactivation of the enzyme through reaction with serpin was monitored continuously, following the decrease in the rate of substrate turnover. Progress curves for reactions with different serpin concentrations were fitted to equation 1 to calculate values describing the rate constant (kobs). The association rate constants (kₐ) were determined from the slope of kobs values versus the concentration of the hK14 inhibitors.

[2] = molecular target: T6, AATWT (recombinant wild type alpha-1-antitrypsin) (human, UniProt P01009 25-418); assay: progress curve, pseudo-first order, 37 C
T6 construct: mature; also called rAATwt; rAAT
Method: as §1, §2

AATG1g = molecular target: T7, AATG1g (human, UniProt P01009 25-418); assay: progress curve; * [I0]/[E0] < 5 * SI
T7 construct: mature
Method: as §1

AATE5 = molecular target: T8, AATE5 (human, UniProt P01009 25-418); assay: progress curve; * [I0]/[E0] < 5 * SI
T8 construct: mature
Method: as §1

AATF3 = molecular target: T9, AATF3 (human, UniProt P01009 25-418); assay: progress curve; * [I0]/[E0] < 5 * SI
T9 construct: mature
Method: as §1

AATE8 = molecular target: T10, AATE8 (human, UniProt P01009 25-418); assay: progress curve; * [I0]/[E0] < 5 * SI
T10 construct: mature; also called rAATE8
Method: as §1

AATC11 = molecular target: T11, AATC11 (human, UniProt P01009 25-418); assay: progress curve; * [I0]/[E0] < 5 * SI
T11 construct: mature
Method: as §1

AATG1 = molecular target: T12, AATG1 (human, UniProt P01009 25-418); assay: progress curve; * [I0]/[E0] < 5 * SI
T12 construct: mature
Method: as §1

AATG9 [3] = molecular target: T5, AATG9; assay: progress curve
Method: as §1

[4] = molecular target: T6, AATWT (recombinant wild type …); assay: progress curve
Method: as §1

human kallikrein 4 (hK4) = human kallikrein 4 (hK4) (human, UniProt Q9Y5K2 31-254, limits assumed); assay: cell-based or functional assay
[5] = molecular target: T1, human kallikrein 13 (hK13); assay: cell-based or functional assay
[6] = molecular target: human plasma kallikrein (PK) (human, UniProt P03952 20-638); assay: cell-based or functional assay
thrombin = assay: cell-based or functional assay
[7] = molecular target: human chymotrypsin (Chtr) (human, UniProt P17538 19-263); assay: cell-based or functional assay
human kallikrein 2 (hK2) = human kallikrein 2 (hK2) (human, UniProt P20151 25-261); assay: cell-based or functional assay
[8] = molecular target: T2, human neutrophil elastase (HNE); assay: cell-based or functional assay
human kallikrein 5 (hK5) = molecular target: T3, human kallikrein 5 (hK5); assay: cell-based or functional assay
human kallikrein 8 (hK8) = molecular target: T4, human kallikrein 8 (hK8); assay: cell-based or functional assay
human kallikrein 6 (hK6) = human kallikrein 6 (hK6) (human, UniProt Q92876 22-244); assay: cell-based or functional assay
[9] = molecular target: B1; assay: cell-based or functional assay
[10] = molecular target: prostate specific antigen (PSA, hK3) (human, UniProt P07288 25-261); assay: cell-based or functional assay
[11] = molecular target: B1; assay: progress curve
[12] = molecular target: B1; assay: residual hK14 activity against [I0]/[E0]
How it was run: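 hK14 preincubated 4 hours at 37° C with varying inhibitor concentrations in 50 mM Tris pH 7.5, 150 mM NaCl, 0.05% Triton X-100, 0.01% BSA; residual activity read with Boc-Val-Pro-Arg-AMC (ex 340/em 485 nm). SI taken as abscissa intercept of vi/v₀ versus [I₀]/[E₀] linear regression.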

[13] = molecular target: B1; assay: progress curve; remark: listed apart in the source
[14] = molecular target: B1; assay: residual hK14 activity after 4 h at 37 C against [I0]/[E0]
Method: SI values of rAAT, rACT, and their variants were determined with hK14 incubating the protease with varying concentrations of inhibitor. After an incubation of 4 hours at 37° C. in reaction buffer (50 mM Tris, pH 7.5, 150 mM NaCl, 0.05% Triton X-100, 0.01% BSA), the residual activity was detected by the addition of fluorescent substrate (Boc-Val-Pro-Arg-AMC). Fluorescence was measured with excitation at 340 nm (±15) and emission at 485 nm (±10) in black 96 well plates using a microplate fluorescence reader FLₓ800 (Bio-Tek Instruments, Inc.). The SI value corresponds to the abscissa intercept of the linear regression analysis of fractional velocity (velocity of inhibited enzyme reaction (vi)/velocity of uninhibited enzyme reaction (v₀)) vs. the molar ratio of the inhibitor to enzyme ([I₀]/[E₀]).

[15] = molecular target: B1; assay: progress curve, pseudo-first order, 37 C
Method: as §1, §2

T6 sequence (P01009 other isoform, or with tags, fused parts or gaps): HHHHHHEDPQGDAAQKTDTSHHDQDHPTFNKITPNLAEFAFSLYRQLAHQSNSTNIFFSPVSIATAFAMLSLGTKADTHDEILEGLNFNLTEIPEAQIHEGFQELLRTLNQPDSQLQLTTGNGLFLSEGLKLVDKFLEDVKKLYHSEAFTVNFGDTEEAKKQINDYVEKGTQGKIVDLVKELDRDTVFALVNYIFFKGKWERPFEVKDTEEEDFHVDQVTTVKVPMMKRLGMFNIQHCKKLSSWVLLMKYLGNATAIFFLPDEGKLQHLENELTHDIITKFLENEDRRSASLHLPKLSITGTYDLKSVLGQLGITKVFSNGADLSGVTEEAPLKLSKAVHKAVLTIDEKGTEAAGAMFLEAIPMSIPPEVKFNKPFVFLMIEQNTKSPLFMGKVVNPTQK
T5 sequence (P01009 other isoform, or with tags, fused parts or gaps): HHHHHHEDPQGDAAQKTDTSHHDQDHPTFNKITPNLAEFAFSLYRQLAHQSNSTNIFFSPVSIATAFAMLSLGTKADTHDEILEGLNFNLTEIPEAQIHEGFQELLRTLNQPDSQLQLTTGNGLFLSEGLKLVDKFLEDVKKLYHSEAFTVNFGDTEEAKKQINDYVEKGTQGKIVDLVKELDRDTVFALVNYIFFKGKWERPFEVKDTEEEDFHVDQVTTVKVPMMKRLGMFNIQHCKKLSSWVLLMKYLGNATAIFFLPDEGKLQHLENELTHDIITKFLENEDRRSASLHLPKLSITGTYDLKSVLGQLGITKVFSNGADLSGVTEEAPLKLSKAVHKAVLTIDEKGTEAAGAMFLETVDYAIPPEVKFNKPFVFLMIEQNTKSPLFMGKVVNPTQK
T8 sequence (P01009 other isoform, or with tags, fused parts or gaps): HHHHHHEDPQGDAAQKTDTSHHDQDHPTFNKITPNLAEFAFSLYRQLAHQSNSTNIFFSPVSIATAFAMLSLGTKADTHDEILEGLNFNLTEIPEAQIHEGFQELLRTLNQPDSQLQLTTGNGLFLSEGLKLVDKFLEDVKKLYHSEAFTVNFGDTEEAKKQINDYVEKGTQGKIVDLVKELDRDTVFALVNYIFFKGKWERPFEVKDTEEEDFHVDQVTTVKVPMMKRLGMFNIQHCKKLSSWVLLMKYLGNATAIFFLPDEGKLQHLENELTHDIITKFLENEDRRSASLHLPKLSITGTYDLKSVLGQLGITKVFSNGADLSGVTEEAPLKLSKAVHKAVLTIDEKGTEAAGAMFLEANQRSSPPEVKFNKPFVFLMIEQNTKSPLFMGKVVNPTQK
T9 sequence (P01009 other isoform, or with tags, fused parts or gaps): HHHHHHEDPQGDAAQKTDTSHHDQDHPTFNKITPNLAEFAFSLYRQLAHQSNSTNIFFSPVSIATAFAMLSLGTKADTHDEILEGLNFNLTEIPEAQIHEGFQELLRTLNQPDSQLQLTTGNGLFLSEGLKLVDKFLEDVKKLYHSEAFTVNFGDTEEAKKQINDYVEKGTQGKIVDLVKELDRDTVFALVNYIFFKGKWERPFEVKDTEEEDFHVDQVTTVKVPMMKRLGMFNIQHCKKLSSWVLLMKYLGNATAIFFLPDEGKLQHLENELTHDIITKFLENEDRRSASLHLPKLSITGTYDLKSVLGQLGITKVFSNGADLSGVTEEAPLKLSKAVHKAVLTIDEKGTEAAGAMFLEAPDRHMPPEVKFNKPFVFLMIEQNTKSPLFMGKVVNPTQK
T7 sequence (P01009 other isoform, or with tags, fused parts or gaps): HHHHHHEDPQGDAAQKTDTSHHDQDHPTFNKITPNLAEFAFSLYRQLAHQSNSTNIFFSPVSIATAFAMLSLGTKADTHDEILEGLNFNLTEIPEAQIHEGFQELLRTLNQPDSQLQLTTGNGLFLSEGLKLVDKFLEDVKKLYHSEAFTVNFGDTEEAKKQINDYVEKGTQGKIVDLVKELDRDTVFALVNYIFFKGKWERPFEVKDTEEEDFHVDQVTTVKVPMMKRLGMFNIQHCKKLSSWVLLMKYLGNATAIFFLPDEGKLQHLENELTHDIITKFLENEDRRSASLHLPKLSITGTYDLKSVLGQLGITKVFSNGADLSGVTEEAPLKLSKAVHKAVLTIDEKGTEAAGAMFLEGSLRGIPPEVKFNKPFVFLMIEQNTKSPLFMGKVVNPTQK
Chain of human chymotrypsin (Chtr) (P17538 19-263): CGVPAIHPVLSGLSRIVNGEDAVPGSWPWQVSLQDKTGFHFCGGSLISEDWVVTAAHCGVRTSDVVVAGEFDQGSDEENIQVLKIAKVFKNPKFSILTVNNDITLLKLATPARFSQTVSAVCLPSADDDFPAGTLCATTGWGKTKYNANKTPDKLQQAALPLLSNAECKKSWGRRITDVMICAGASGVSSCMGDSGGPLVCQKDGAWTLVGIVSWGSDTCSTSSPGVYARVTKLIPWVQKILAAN
T12 sequence (P01009 other isoform, or with tags, fused parts or gaps): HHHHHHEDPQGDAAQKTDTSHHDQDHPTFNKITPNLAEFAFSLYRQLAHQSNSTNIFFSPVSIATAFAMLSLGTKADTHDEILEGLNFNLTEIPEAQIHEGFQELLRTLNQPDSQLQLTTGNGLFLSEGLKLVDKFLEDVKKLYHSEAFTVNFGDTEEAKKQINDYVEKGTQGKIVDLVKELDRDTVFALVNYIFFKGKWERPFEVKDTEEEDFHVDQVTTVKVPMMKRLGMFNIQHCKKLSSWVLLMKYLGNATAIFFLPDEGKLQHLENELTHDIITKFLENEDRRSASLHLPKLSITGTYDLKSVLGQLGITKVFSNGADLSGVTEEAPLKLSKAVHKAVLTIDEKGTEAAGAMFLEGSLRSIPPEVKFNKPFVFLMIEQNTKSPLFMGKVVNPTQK
T10 sequence (P01009 other isoform, or with tags, fused parts or gaps): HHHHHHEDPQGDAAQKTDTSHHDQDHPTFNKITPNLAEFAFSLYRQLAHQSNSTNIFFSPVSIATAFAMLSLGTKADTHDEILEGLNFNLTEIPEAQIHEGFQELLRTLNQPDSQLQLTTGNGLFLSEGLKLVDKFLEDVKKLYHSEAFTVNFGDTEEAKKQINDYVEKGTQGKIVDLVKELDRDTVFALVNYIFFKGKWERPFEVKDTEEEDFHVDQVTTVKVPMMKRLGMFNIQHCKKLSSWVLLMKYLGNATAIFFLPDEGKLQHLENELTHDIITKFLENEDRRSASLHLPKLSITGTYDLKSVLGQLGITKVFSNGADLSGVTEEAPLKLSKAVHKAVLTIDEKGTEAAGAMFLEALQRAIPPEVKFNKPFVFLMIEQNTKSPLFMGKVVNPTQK
Chain of human plasma kallikrein (PK) (P03952 20-638 limits assumed): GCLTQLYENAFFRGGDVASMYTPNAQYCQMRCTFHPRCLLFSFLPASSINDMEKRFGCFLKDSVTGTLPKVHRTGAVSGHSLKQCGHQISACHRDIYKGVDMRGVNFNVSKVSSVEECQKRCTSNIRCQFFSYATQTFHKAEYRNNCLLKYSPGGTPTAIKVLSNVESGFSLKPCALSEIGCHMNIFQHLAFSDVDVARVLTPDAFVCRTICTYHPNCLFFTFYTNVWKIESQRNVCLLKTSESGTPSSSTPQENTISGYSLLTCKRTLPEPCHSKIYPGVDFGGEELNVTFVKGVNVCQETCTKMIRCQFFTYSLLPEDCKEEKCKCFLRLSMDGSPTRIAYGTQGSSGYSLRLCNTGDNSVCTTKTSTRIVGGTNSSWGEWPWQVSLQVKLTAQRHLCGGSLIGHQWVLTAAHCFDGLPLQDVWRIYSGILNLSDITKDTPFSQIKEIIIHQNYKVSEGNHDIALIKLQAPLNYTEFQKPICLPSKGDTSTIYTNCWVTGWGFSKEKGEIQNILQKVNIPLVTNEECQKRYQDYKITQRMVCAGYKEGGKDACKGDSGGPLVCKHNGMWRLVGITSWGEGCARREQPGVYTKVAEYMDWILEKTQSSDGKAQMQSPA
Chain of human kallikrein 4 (hK4) (Q9Y5K2 31-254 limits assumed): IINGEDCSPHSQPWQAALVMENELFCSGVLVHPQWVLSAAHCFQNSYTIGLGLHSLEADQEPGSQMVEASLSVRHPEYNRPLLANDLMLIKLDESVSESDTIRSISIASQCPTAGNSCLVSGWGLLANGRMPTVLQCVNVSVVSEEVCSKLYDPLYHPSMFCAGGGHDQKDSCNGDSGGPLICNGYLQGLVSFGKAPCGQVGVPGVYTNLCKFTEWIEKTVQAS
T11 sequence (P01009 other isoform, or with tags, fused parts or gaps): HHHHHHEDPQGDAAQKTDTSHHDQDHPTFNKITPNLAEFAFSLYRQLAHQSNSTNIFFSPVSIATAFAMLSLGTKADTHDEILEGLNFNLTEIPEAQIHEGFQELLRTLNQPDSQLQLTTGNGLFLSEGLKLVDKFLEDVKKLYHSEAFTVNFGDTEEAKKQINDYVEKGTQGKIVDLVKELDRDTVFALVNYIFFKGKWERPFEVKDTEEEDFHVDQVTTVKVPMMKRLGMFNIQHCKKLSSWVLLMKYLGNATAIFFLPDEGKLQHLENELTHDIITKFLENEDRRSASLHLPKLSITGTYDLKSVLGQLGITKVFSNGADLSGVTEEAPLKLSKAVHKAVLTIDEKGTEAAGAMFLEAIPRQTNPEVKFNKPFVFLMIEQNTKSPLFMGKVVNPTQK

Binder: B1
- kon (AATG9 [1]): 217000 M⁻¹ s⁻¹
- kon [2]: 263000 M⁻¹ s⁻¹
- kon (AATG1g): 257000 M⁻¹ s⁻¹
- kon (AATE5): 28000 M⁻¹ s⁻¹
- kon (AATF3): 13000 M⁻¹ s⁻¹
- kon (AATE8): 242000 M⁻¹ s⁻¹
- kon (AATC11): 63000 M⁻¹ s⁻¹
- kon (AATG1): 168000 M⁻¹ s⁻¹
- kon (AATG9 [3]): 217000 M⁻¹ s⁻¹
- kon [4]: 263000 M⁻¹ s⁻¹

Binder: B2
- Percentage inhibition (human kallikrein 4 (hK4)): 0%
- Percentage inhibition [5]: 0%
- Percentage inhibition [6]: 0%
- Percentage inhibition (thrombin): 0%
- Percentage inhibition [7]: 100%
- Percentage inhibition (human kallikrein 2 (hK2)): 0%
- Percentage inhibition [8]: 0%
- Percentage inhibition (human kallikrein 5 (hK5)): 0%
- Percentage inhibition (human kallikrein 8 (hK8)): 0%
- Percentage inhibition (human kallikrein 6 (hK6)): 0%
- Percentage inhibition [9]: 100%
- Percentage inhibition [10]: 0%
- kon [11]: 75000 M⁻¹ s⁻¹
- SI (stoichiometry of inhibition) [12]: 1.5
- kon [13]: 74000 M⁻¹ s⁻¹
- SI (stoichiometry of inhibition) [14]: 1.5
- kon [15]: 74000 M⁻¹ s⁻¹

— patent publication US20140341881A1 (DERMADIS, published 2014)
